Test results from paper PMC2704394 (2009).

B1: full length S. pombe Pik1, wild type [S. pombe] / purified Cdc4 protein [S. pombe] (parent)
chain 1: MPSSNSGNELLLRFFESAHFTSQLCVAYLSRYPNNIGIHHFLCEKLATFPYEEIEFFIPQLIHLVLNKDSESVALEEFIISQCEQNTQCALITFWYLQAHMVDLGLQPHSSCFKICKRLYNRIQILVFMSSSSLIQSQQKISENVTPALILSGIMLGGVCVPELLKKAGPIAIAQGRKAPRQDPDESDVDVLRRLSTEPRYSLDVLRSSLNNSIVEQHSEVSLRLKAPELTRTHSYQSSATLSIDEQRRVLRSNYFQQEIQFLFALQDISIRLIIVPRQARLSSLRAELALLNNNLPADVNIPLLRSYHKEVSHKIVRIDPKEATILNSAERVPYLIMVEVLSGELSFEPQSKKNKAKVQKIVSHKNQRKRWFDLTDVDPYTNLQDSTDNDISESESEGGDLSMSPLIKGLVPDTLSLSKSFSSFGNVSLQVPSSHRDTDVVLLSGRHSDSDGNGALKRSKIYASEITARMRAAATMLSQLDAEGSRRPKAETERIKNSIILDMQRLEEERLNEPSIYPVSVDISCAEDLRFGKETQKAERKGDRDDPSAATFQEDWYAKKERIRKSSPYGHYPNWDLVSVIVKTGADLRQETFACQLIYAFQRVWLECKEKVWVRRMKILVTGDNSGLIETITNAISVHSIKKNLTKQLREAELAQGKIAGKNVVTLKDYFIKQFGDPNSSRYRQAQTNFLQSLVAYSIISYLLQLKDRHNGNVLIDSEGHIIHIDFGFLLTNTPGNVGFESAPFKLTADYLEILDDRFDEYRSLMKAAFKSVRKNADQIILLVEVMQNNSTMPCFRAGENTSAQLLQRFQLQLGDKECDDFVDLLIQKANCSVWTRLYDLFQNITNGIY
chain 2: MSTDDSPYKQAFSLFDRHGTGRIPKTSIGDLLRACGQNPTLAEITEIESTLPAEVDMEQFLQVLNRPNGFDMPGDPEEFVKGFQVFDKDATGMIGVGELRYVLTSLGEKLSNEEMDELLKGVPVKDGMVNYHDFVQMILAN

Variants of: B1
Assay: sandwich ELISA
Settings: with purified Cdc4 protein [S. pombe]; about 7 µg lysate protein; cells grown in the absence of thiamine; Cdc4-coated wells; parent: 0.02; read off a plot

response [Absorbance]	Variant
0.083	chain 1 D709A

Same assay, conditions: with purified Cdc4 protein [S. pombe]; about 14 µg lysate protein; cells grown in the absence of thiamine; Cdc4-coated wells; parent: 0.03; read off a plot

response [Absorbance]	Variant
0.13	chain 1 D709A

Same assay, conditions: with purified Cdc4 protein [S. pombe]; about 28 µg lysate protein; cells grown in the absence of thiamine; Cdc4-coated wells; parent: 0.073; read off a plot

response [Absorbance]	Variant
0.21	chain 1 D709A

Same assay, conditions: with purified Cdc4 protein [S. pombe]; about 56 µg lysate protein (highest point of 2-fold serial dilution); cells grown in the absence of thiamine; Cdc4-coated wells; parent: 0.27; read off a plot

response [Absorbance]	Variant
0.57	chain 1 D709A
